The supplement of paper PMC11246515
± gives the standard deviation of the averaged measurements.

Test: total protein half-life in vivo (active degradation + dilution); higher = more stable protein
[1] = E. coli NCM3722 delta-clpP delta-lon delta-hslV, growth: N-lim chemostat, doubling time 6 h
[2] = E. coli NCM3722 delta-clpP, growth: N-lim chemostat, doubling time 6 h
[3] = E. coli NCM3722 delta-hslV, growth: N-lim chemostat, doubling time 6 h
[4] = E. coli NCM3722 delta-lon, growth: N-lim chemostat, doubling time 6 h
[5] = E. coli NCM3722 delta-smpB, growth: N-lim chemostat, doubling time 6 h
[6] = wild type E. coli NCM3722, growth: C-lim chemostat, doubling time 3 h
[7] = wild type E. coli NCM3722, growth: C-lim chemostat, doubling time 6 h
[8] = wild type E. coli NCM3722, growth: C-lim chemostat, doubling time 12 h
[9] = wild type E. coli NCM3722, growth: N-lim chemostat, doubling time 6 h
[10] = wild type E. coli NCM3722, growth: N-lim chemostat, doubling time 12 h
[11] = wild type E. coli NCM3722, growth: P-lim chemostat, doubling time 6 h
[12] = wild type E. coli NCM3722, growth: P-lim chemostat, doubling time 12 h

| Sequence | total protein half-life in vivo [1] [h] | total protein half-life in vivo [2] [h] | total protein half-life in vivo [3] [h] | total protein half-life in vivo [4] [h] | total protein half-life in vivo [5] [h] | total protein half-life in vivo [6] [h] | total protein half-life in vivo [7] [h] | total protein half-life in vivo [8] [h] | total protein half-life in vivo [9] [h] | total protein half-life in vivo [10] [h] | total protein half-life in vivo [11] [h] | total protein half-life in vivo [12] [h] |
| --- | --- | --- | --- | --- | --- | --- | --- | --- | --- | --- | --- | --- |
| MAIDENKQKALAAALGQIEKQFGKGSIMRLGEDRSMDVETISTGSLSLDIALGAGGLPMGRIVEIYGPESSGKTTLTLQVIAAAQREGKTCAFIDAEHALDPIYARKLGVDIDNLLCSQPDTGEQALEICDALARSGAVDVIVVDSVAALTPKAEIEGEIGDSHMGLAARMMSQAMRKLAGNLKQSNTLLIFINQIRMKIGVMFGNPETTTGGNALKFYASVRLDIRRIGAVKEGENVVGSETRVKVVKNKIAAPFKQAEFQILYGEGINFYGELVDLGVKEKLIEKAGAWYSYKGEKIGQGKANATAWLKDNPETAKEIEKKVRELLLSNPNSTPDFSVDDSEGVAETNEDF [P0A7G6] | 6.6 ± 1 | 5.85 ± 0.55 | 3.37 ± 0.057 | 3.272 ± 0.025 | 3.32 ± 0.036 | 2.86 ± 0.031 | 4.82 ± 0.084 | 11.7 ± 4.1 | 3.4281 ± 0.0021 | 4.94 ± 0.44 | 4.77 ± 0.2 | 9.63 ± 0.48 |
| MNLDDKSLFLDAMEDVQPLKRATDVHWHPTRNQRAPQRIDTLQLDNFLTTGFLDIIPLSQPLEFRREGLQHGVLDKLRSGKYPQQASLNLLRQPVEECRKMVFSFIQQALADGLRNVLIIHGKGRDDKSHANIVRSYVARWLTEFDDVQAYCTALPHHGGSGACYVALRKTAQAKQENWERHAKRSR |  | 3.15 ± 0.09 | 0.92 ± 0.056 |  | 0.889 | 0.985 | 1.35 | 1.42 | 1.06 ± 0.055 | 1.33 ± 0.064 | 1.28 | 1.8 ± 0.54 |
| MLKLLKTIMRAGTATVKYPFAPLEVSPGFRGKPDLMPSQCIACGACACACPANALTIQTDDQQNSRTWQLYLGRCIYCGRCEEVCPTRAIQLTNNFELTVTNKADLYTRATFHLQRCSRCERPFAPQKTIALAAELLAQQQNAPQNREMLWAQASVCPECKQRATLINDDTDVLLVAKEQL | 4.78 |  |  |  |  |  |  |  |  |  |  |  |
| MKLHHRMLRHFIAASVIVLTSSFLIFELVASDRAMSAYLRYIVQKADSSFLYDKYQNQSIAAHVMRALAAEQSEVSPEQRRAICEAFESANNTHGLNLTAHKYPGLRGTLQTASTDCDTIVEAAALLPAFDQAVEGNRHQDDYGSGLGMAEEKFHYYLDLNDRYVYFYEPVNVEYFAMNNWSFLQSGSIGIDRKDIEKVFTGRTVLSSIYQDQRTKQNVMSLLTPVYVAGQLKGIVLLDINKNNLRNIFYTHDRPLLWRFLNVTLTDTDSGRDIIINQSEDNLFQYVSYVHDLPGGIRVSLSIDILYFITSSWKSVLFWILTALILLNMVRMHFRLYQNVSRENISDAMTGLYNRKILTPELEQRLQKLVQSGSSVMFIAIDMDKLKQINDTLGHQEGDLAITLLAQAIKQSIRKSDYAIRLGGDEFCIILVDSTPQIAAQLPERIEKRLQHIAPQKEIGFSSGIYAMKENDTLHDAYKASDERLYVNKQNKNSRS | 6.76 ± 0.25 | 6.49 ± 0.48 | 6.32 ± 0.99 | 6.49 ± 0.3 | 5.84 ± 0.39 | 3.35 ± 0.26 |  |  | 6.57 ± 0.21 | 14.1 ± 0.84 | 6.25 ± 0.64 | 12.9 ± 0.26 |
| MFIRAPNFGRKLLLTCIVAGVMIAILVSCLQFLVAWHKHEVKYDTLITDVQKYLDTYFADLKSTTDRLQPLTLDTCQQANPELTARAAFSMNVRTFVLVKDKKTFCSSATGEMDIPLNELIPALDINKNVDMAILPGTPMVPNKPAIVIWYRNPLLKNSGVFAALNLNLTPSLFYSSRQEDYDGVALIIGNTALSTFSSRLMNVNELTDMPVRETKIAGIPLTVRLYADDWTWNDVWYAFLLGGMSGTVVGLLCYYLMSVRMRPGREIMTAIKREQFYVAYQPVVDTQALRVTGLEVLLRWRHPVAGEIPPDAFINFAESQKMIVPLTQHLFELIARDAAELEKVLPVGVKFGINIAPDHLHSESFKADIQKLLTSLPAHHFQIVLEITERDMLKEQEATQLFAWLHSVGVEIAIDDFGTGHSALIYLERFTLDYLKIDRGFINAIGTETITSPVLDAVLTLAKRLNMLTVAEGVETPEQARWLSERGVNFMQGYWISRPLPLDDFVRWLKKPYTPQW | 6.645 ± 0.021 | 6.81 ± 0.3 | 6.17 ± 0.16 | 6.55 ± 1 | 5.84 ± 0.17 |  | 5.92 ± 1.2 | 10.5 ± 0.13 | 5.91 ± 0.13 | 11.2 ± 0.95 | 5.7999 ± 0.0026 | 10.4 ± 0.3 |
| MRNKPFYLLCAFLWLAVSHALAADSTITIRGYVRDNGCSVAAESTNFTVDLMENAAKQFNNIGATTPVVPFRILLSPCGNAVSAVKVGFTGVADSHNANLLALENTVSAASGLGIQLLNEQQNQIPLNAPSSALSWTTLTPGKPNTLNFYARLMATQVPVTAGHINATATFTLEYQ |  |  |  |  | 5.58 ± 0.25 | 2.61 | 5.55 | 15.7 | > 8 | 13.4 | 5.52 | 9.2 |
| MNALTAVQNNAVDSGQDYSGFTLTPSAQSPRLLELTFTEQTTKQFLEQVAEWPVQALEYKSFLRFRVAKILDDLCANQLQPLLLKTLLNRAEGALLINAVGVDDVKQADEMVKLATAVAHLIGRSNFDAMSGQYYARFVVKNVDNSDSYLRQPHRVMELHNDGTYVEEITDYVLMMKIDEQNMQGGNSLLLHLDDWEHLDNYFRHPLARRPMRFAAPPSKNVSKDVFHPVFDVDQQGRPVMRYIDQFVQPKDFEEGVWLSELSDAIETSKGILSVPVPVGKFLLINNLFWLHGRDRFTPHPDLRRELMRQRGYFAYASNHYQTHQ | 5.49 ± 0.24 | 1.73 ± 0.11 |  |  |  | 0.794 ± 0.23 | 1.18 ± 0.23 | 0.791 ± 0.35 | 1.3 | 1.1 ± 0.12 |  | 1.17 ± 0.72 |
| MTTQYGFFIDSSRCTGCKTCELACKDFKDLGPEVSFRRIYEYAGGDWQEDNGVWHQNVFAYYLSISCNHCDDPACTKVCPSGAMHKREDGFVVVDEDVCIGCRYCHMACPYGAPQYNAEKGHMTKCDGCYSRVAEGKQPICVESCPLRALEFGPIEELRQKHGTLAAVAPLPRAHFTKPNIVIKPNANSRPTGDTTGYLANPEEV [P0AAJ1] | 4.03 |  |  |  |  |  |  |  |  |  |  |  |
| MKITLSKRIGLLAILLPCALALSTTVHAETNKLVIESGDSAQSRQHAAMEKEQWNDTRNLRQKVNKRTEKEWDKADAAFDNRDKCEQSANINAYWEPNTLRCLDRRTGRVITP | 6.01 ± 0.36 |  | 4.407 ± 0.012 | 5.55 ± 1.8 | 4.06 ± 0.71 |  | 5.07 ± 0.96 | 7.11 ± 3.5 | 4.93 ± 0.28 | 11 ± 1.8 | 5.78 ± 0.18 | 12.4 ± 0.79 |
| MNRRRKLLIPLLFCGAMLTACDDKSAENAAAMTPEVGVVTLSPGSVNVLSELPGRTVPYEVAEIRPQVGGIIIKRNFIEGDKVNQGDSLYQIDPAPLQAELNSAKGSLAKALSTASNARITFNRQASLLKTNYVSRQDYDTARTQLNEAEANVTVAKAAVEQATINLQYANVTSPITGVSGKSSVTVGALVTANQADSLVTVQRLDPIYVDLTQSVQDFLRMKEEVASGQIKQVQGSTPVQLNLENGKRYSQTGTLKFSDPTVDETTGSVTLRAIFPNPNGDLLPGMYVTALVDEGSRQNVLLVPQEGVTHNAQGKATALILDKDDVVQLREIEASKAIGDQWVVTSGLQAGDRVIVSGLQRIRPGIKARAISSSQENASTESKQ | 5.76 ± 0.3 | 6.22 ± 0.68 | 6.15 ± 0.1 | 6.24 ± 0.35 | 5.05 ± 0.34 | 2.98 | 6.09 | > 16 | 5.92 ± 0.32 | 10.6 ± 0.88 | 3.99 ± 0.38 | 8.12 ± 0.25 |
| MSQEYIEDKEVTLTKLSSGRRLLEALLILIVLFAVWLMAALLSFNPSDPSWSQTAWHEPIHNLGGMPGAWLADTLFFIFGVMAYTIPVIIVGGCWFAWRHQSSDEYIDYFAVSLRIIGVLALILTSCGLAAINADDIWYFASGGVIGSLLSTTLQPLLHSSGGTIALLCVWAAGLTLFTGWSWVTIAEKLGGWILNILTFASNRTRRDDTWVDEDEYEDDEEYEDENHGKQHESRRARILRGALARRKRLAEKFINPMGRQTDAALFSGKRMDDDEEITYTARGVAADPDDVLFSGNRATQPEYDEYDPLLNGAPITEPVAVAAAATTATQSWAAPVEPVTQTPPVASVDVPPAQPTVAWQPVPGPQTGEPVIAPAPEGYPQQSQYAQPAVQYNEPLQQPVQPQQPYYAPAAEQPAQQPYYAPAPEQPVAGNAWQAEEQQSTFAPQSTYQTEQTYQQPAAQEPLYQQPQPVEQQPVVEPEPVVEETKPARPPLYYFEEVEEKRAREREQLAAWYQPIPEPVKEPEPIKSSLKAPSVAAVPPVEAAAAVSPLASGVKKATLATGAAATVAAPVFSLANSGGPRPQVKEGIGPQLPRPKRIRVPTRRELASYGIKLPSQRAAEEKAREAQRNQYDSGDQYNDDEIDAMQQDELARQFAQTQQQRYGEQYQHDVPVNAEDADAAAEAELARQFAQTQQQRYSGEQPAGANPFSLDDFEFSPMKALLDDGPHEPLFTPIVEPVQQPQQPVAPQQQYQQPQQPVPPQPQYQQPQQPVAPQPQYQQPQQPVAPQQQYQQPQQPVAPQQQYQQPQQPVAPQPQDTLLHPLLMRNGDSRPLHKPTTPLPSLDLLTPPPSEVEPVDTFALEQMARLVEARLADFRIKADVVNYSPGPVITRFELNLAPGVKAARISNLSRDLARSLSTVAVRVVEVIPGKPYVGLELPNKKRQTVYLREVLDNAKFRDNPSPLTVVLGKDIAGEPVVADLAKMPHLLVAGTTGSGKSVGVNAMILSMLYKAQPEDVRFIMIDPKMLELSVYEGIPHLLTEVVTDMKDAANALRWCVNEMERRYKLMSALGVRNLAGYNEKIAEADRMMRPIPDPYWKPGDSMDAQHPVLKKEPYIVVLVDEFADLMMTVGKKVEELIARLAQKARAAGIHLVLATQRPSVDVITGLIKANIPTRIAFTVSSKIDSRTILDQAGAESLLGMGDMLYSGPNSTLPVRVHGAFVRDQEVHAVVQDWKARGRPQYVDGITSDSESEGGAGGFDGAEELDPLFDQAVQFVTEKRKASISGVQRQFRIGYNRAARIIEQMEAQGIVSEQGHNGNREVLAPPPFD | 3.531 ± 0.015 | 2.17 ± 0.29 | 1.2 ± 0.38 | 1.48 ± 0.059 | 0.895 ± 0.031 | 0.891 ± 0.042 | 1.36 ± 0.11 | 1.76 ± 0.29 | 1.39 ± 0.31 | 1.57 ± 0.13 | 1.48 ± 0.15 | 2.78 ± 1 |
| MHRILAEKSVNITELRKNPAKYFIDQPVAVLSNNRPAGYLLSASAFEALMDMLAEQEEKKPIKARFRPSAARLEEITRRAEQYLNDMTDDDFNDFKE | 6.12 ± 0.86 | 3.91 |  |  |  |  |  |  |  |  |  | 4.58 |
| MKTSRLPIAIQQAVMRRLREKLAQANLKLGRNYPEPKLSYTQRGTSAGTAWLESYEIRLNPVLLLENSEAFIEEVVPHELAHLLVWKHFGRVAPHGKEWKWMMENVLGVPARRTHQFELQSVRRNTFPYRCKCQEHQLTVRRHNRVVRGEAVYRCVHCGEQLVAK | 4.81 ± 0.12 |  |  |  |  |  |  | 5.52 |  |  |  |  |
| MSIISTKYLLQDAQANGYAVPAFNIHNAETIQAILEVCSEMRSPVILAGTPGTFKHIALEEIYALCSAYSTTYNMPLALHLDHHESLDDIRRKVHAGVRSAMIDGSHFPFAENVKLVKSVVDFCHSQDCSVEAELGRLGGVEDDMSVDAESAFLTDPQEAKRFVELTGVDSLAVAIGTAHGLYSKTPKIDFQRLAEIREVVDVPLVLHGASDVPDEFVRRTIELGVTKVNVATELKIAFAGAVKAWFAENPQGNDPRYYMRVGMDAMKEVVRNKINVCGSANRISA [P0AB74] | > 8 |  |  |  |  | 2.35 ± 1.1 | 3.2 | 4.72 |  |  |  |  |
